Blank lines part the entries; values can stand above or below the binder they belong to. Starred links: 1 amine or outer side, 2 acyl side, 3 side chain; linkers in the order of their positions; H or OH if unused. Positions of bridges follow the written chain, without caps; N, C: chain ends. Non-standard residues stand in square brackets, D forms with d. Primed or numbered codes have the meaning given here. *: point of attachment. Aph(6SaPyr3) = 4-amino-L-phenylalanine, ring amine acylated by 6-sulfamoylpyridine-3-carboxylic acid, NS(=O)(=O)c1ccc(C(=O)Nc2ccc(C[C@H](N[*:1])C(=O)[*:2])cc2)cn1; Aph(SaPr)(5) = 4-amino-L-phenylalanine acylated on the ring amine with 3-sulfamoylpropanoic acid, NS(=O)(=O)CCC(=O)Nc1ccc(C[C@H](N[*:1])C(=O)[*:2])cc1; 111In‑DOTA = O=C([O-])CN1CCN(CC(=O)[O-])CCN(CC(=O)*)CCN(CC(=O)[O-])CC1.[111In+3]; Phe(3-NHCO(CH2)3SO2NH2) = N[C@@H](Cc1cccc(NC(=O)CCCS(N)(=O)=O)c1)C(=O)O; APAc″ = 2-(4-(amino)piperidin-1-yl)acetic acid, NC1CCN(CC(=O)*)CC1; DOTA = O=C(O)CN1CCN(CC(=O)O)CCN(CC(=O)*)CCN(CC(=O)O)CC1; PPAc = 4-carboxymethyl piperazine linker; mXylylene = c1cc(C[*:1])cc(C[*:2])c1; Cy5SO3 = Cy5 dye with one sulfonate; APAc = not defined here; Dap = NC[C@H](N)C(=O)O; Sni = not defined here
Legend:
[1] = target: T1, Fc-fusion protein of human carbonic anhydrase IX (human, UniProt Q16790 38-414); assay: SPR, captured hCAIX-Fc; t1/2 category A: >15.0 min
[2] = target: T2, human carbonic anhydrase XII (CAXII), biotinylated (human, UniProt O43570 25-301, biotinylated); assay: SPR, biotinylated CAXII captured (Biotin CAPture)
T2 construct: Bought (SinoBiological Cat #10617-H08H); also called hCAXII-bio
Excerpt: (§1) For each test compound, SPR raw data in the form of resonance units (RU) were plotted as sensorgrams using the Biacore™ T200 control software. The signal from the blank sensorgram was subtracted from that of the test compound sensorgram (blank corrected). The blank corrected sensorgram was corrected for baseline drift by subtracting the sensorgram of a SCK run without the test compound (running buffer only). […] Raw data and fit results were imported as text files in IDBS. The pKD value (negative decadic logarithm of dissociation constant) was calculated in the IDBS excel template.

[3] = target: T1, Fc-fusion protein of human carbonic …; assay: SPR, captured hCAIX-Fc; pKD category A: >8.0
[4] = target: T3, human carbonic anhydrase XIV (CAXIV), biotinylated (human, UniProt Q9ULX7 16-290, biotinylated); assay: SPR, biotinylated CAXIV captured (Biotin CAPture)
T3 construct: Bought (SinoBiological Cat #10458-H08H); also called hCAXIV-bio
Excerpt: as §1

[5] = target: T4, human carbonic anhydrase IV (CAIV), biotinylated (human, UniProt P22748 19-283, limits assumed, biotinylated); assay: SPR, biotinylated CAIV captured (Biotin CAPture)
T4 construct: Bought (SinoBiological, Cat # printed 10472-1H081H); also called hCAIV-bio
Excerpt: as §1

[6] = target: T1, Fc-fusion protein of human carbonic …; assay: SPR, CAIX; pKD category A: >8.0
Method: Stock solutions of test compounds were prepared by dissolving each compound in DMSO. DMSO stock solution were diluted 1:1000 in Running Buffer without DMSO. […] SPR binding analyses were performed in Single Cycle Kinetic (SCK) mode at 25° C.
as §1

[7] = target: T5, human carbonic anhydrase IX (CAIX) (human, UniProt Q16790 38-459); assay: radioligand binding, 111In-labeled compound, CHO cells with human CAIX; pKD category A: >8.0
Method: (§5) CHO-VGT cells were transfected with the human, dog, and mouse CAIX (InSCREENex GmbH) and cultured in Ham's F-12 medium (Sigma-Aldrich #N4888) supplemented with 10% fetal bovine serum (FCS), 2 mM L-glutamine, 100 U/mL Penicillin, and 0.1 mg/mL streptomycin. […] Cell concentrations were adjusted to 3×10⁵ mL⁻¹, and 1.000 μL of the suspension per well were dispensed into flat-clear-bottom 24 well plates.
(§6) Approximately 24 hours after re-seeding, the medium was aspirated and the cells were washed once with 1000 μL assay medium (Ham's medium without additives). To determine total binding, 700 μL of assay medium and 100 μL of the radioligand dilutions were added to the wells in triplicates. To determine non-specific binding, 600 μL of binding medium, 100 μL of the radioligand dilutions and 100 μL of a blocking solution containing 8 μM non-labeled compound were added to the wells in triplicates. […] An aliquot of each radioligand dilution was included in the gamma counter measurements to allow for determination of their actual concentrations via their known specific activity.

[8] = target: T6, murine carbonic anhydrase 9 (CAIX) (mouse, UniProt Q8VHB5 32-437); assay: radioligand binding, 111In-labeled compound, CHO cells with mouse CAIX; pKD category A: >8.0
T6 construct: On transfected CHO-VGT cells; also called mouse CAIX
Method: as §5, §6

[9] = target: T7, canine carbonic anhydrase 9 (CAIX) (dog); assay: radioligand binding, 111In-labeled compound, CHO cells with dog CAIX; pKD category A: >8.0
T7 construct: On transfected CHO-VGT cells; also called dog CAIX
Method: as §5, §6

[10] = target: T5, human carbonic anhydrase IX (CAIX); assay: FACS competition, HT-29 cells, tracer printed 3BP-414 (probably 3BP-4149); pIC50 category B: 7.1-8.0
Method: (§2) CAIX-expressing human HT-29 colorectal cancer cells (DSMZ, RRID: CVCL_0320) were cultured in McCoys's 5A modified medium (Biochrom, #F1015) including 10% fetal calf serum (FCS), 2 mM L-glutamine, 100 U/ml penicillin and 100 μg/mL streptomycin. Cells were detached with Accutase (Biolegend, #423201) and washed in FACS buffer (PBS including 1% FCS). Cells were diluted in FACS buffer to a final concentration of 500.000 cells per ml. 200 μL of the cell suspension were transferred to a u-shaped non-binding 96-well plate (Greiner) and cells were washed in ice-cold FACS buffer.
(§3) When biotinylated compounds were used an additional incubation step with 1 μg/mL APC-Streptavidin (Miltenyi; #130-106-791) in 50 μL FACS buffer for 30 minutes on ice was performed.
(§4) Cells were washed twice with ice-cold FACS buffer and analyzed in an Attune NxT flow cytometer (Thermo Fisher). Median fluorescence intensities (MFI) of the APC/Cy5-channel were calculated by Attune NxT software.

[11] = target: T6, murine carbonic anhydrase 9 (CAIX); assay: radioligand binding, 111In-labeled compound, CHO cells with mouse CAIX; pKD category B: 7.1-8.0
[12] = target: Human carbonic anhydrase IX Fc-fusion protein (CAIX, Sino Biological, 10107-H02H) (human, UniProt Q16790 38-414); assay: SPR (Biacore T200), CAIX-Fc captured by anti-human Fc antibody, peptide as analyte, single cycle kinetics, 25 C, 1:1 Langmuir fit
Method: Surface Plasmon Resonance (SPR) studies were performed on a Biacore™ T200 using a ligand capture approach. Basically, anti-human Fc antibodies were immobilized on the surface of a sensor chip and CAIX was captured on the functionalized surface via its Fc Tag.

[13] = target: T5, human carbonic anhydrase IX (CAIX); assay: FACS competition, HT-29 cells, tracer 3BP-4149; pIC50 category C: 6.1-7.0
Method: as §2, §3, §4

[14] = target: human carbonic anhydrase 9 (CAIX) (human, UniProt Q16790 38-459); assay: FACS binding assay on CAIX-expressing HT-29 cells, Cy5-labeled compound; pEC50 category (A = pEC50 >8.0)
Method: as §2, §3, §4

[15] = target: T6, murine carbonic anhydrase 9 (CAIX); assay: radioligand binding, 111In-labeled compound, CHO cells with mouse CAIX; pKD category C: 6.1-7.0

T7 sequence (chain, as listed by the source limits assumed): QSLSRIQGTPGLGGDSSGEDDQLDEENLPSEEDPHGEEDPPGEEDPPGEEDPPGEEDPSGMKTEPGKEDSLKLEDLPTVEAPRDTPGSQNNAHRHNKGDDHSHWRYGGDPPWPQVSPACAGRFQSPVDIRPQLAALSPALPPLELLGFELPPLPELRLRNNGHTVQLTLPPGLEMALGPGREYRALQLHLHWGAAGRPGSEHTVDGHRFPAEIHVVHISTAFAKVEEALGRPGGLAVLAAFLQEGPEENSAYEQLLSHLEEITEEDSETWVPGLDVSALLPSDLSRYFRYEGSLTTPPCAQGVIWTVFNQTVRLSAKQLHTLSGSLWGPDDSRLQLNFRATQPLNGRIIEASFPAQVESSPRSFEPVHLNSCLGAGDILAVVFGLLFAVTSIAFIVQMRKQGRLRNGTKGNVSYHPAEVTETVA
T6 sequence (Q8VHB5 32-437 limits assumed): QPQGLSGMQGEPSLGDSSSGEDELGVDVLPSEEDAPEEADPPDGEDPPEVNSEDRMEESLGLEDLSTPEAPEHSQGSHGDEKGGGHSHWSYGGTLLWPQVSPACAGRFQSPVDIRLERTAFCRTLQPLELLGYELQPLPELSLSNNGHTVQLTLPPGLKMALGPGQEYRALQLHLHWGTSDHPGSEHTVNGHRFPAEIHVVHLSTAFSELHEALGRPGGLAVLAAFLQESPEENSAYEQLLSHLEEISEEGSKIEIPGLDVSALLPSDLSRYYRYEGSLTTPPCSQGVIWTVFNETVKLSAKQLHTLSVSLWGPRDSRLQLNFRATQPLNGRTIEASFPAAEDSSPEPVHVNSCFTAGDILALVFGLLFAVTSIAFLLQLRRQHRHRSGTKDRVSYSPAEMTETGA
T4 sequence (P22748 19-283 limits assumed): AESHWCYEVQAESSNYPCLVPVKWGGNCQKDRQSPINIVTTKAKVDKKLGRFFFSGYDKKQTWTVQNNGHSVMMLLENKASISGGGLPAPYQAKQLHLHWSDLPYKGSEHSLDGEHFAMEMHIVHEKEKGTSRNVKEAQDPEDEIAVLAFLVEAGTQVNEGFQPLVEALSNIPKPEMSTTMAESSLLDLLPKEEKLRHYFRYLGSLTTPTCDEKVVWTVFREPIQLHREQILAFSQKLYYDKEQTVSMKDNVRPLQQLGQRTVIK
T3 sequence (Q9ULX7 16-290 limits assumed): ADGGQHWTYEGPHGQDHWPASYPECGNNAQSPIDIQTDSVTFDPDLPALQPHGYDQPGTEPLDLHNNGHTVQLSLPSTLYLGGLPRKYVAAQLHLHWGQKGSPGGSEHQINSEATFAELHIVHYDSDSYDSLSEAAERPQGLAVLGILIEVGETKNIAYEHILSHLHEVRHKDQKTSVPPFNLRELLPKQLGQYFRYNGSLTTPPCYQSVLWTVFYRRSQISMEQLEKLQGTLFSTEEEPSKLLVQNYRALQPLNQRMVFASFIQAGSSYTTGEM
T2 sequence (O43570 25-301 limits assumed): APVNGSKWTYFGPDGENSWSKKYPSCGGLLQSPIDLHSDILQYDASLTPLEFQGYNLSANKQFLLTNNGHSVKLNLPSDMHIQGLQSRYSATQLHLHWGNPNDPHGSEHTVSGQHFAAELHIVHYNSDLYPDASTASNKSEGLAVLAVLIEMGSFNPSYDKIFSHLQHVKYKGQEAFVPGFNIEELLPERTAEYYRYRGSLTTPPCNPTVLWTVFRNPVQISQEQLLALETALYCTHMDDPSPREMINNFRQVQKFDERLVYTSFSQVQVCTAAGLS

pKD [11]: 7.1 to 8 pkd
pKD [9]: > 8 pkd
Binder: {111In‑DOTA-PPAc}-QCE[dP]D[Phe(3-NHCO(CH2)3SO2NH2)]LTWSC-NH2 (linker 2-11 via mXylylene, also called [111In]In-DPI-4452) [111In-3BP-4452]

pKD [15]: 6.1 to 7 pkd
pKD [7]: > 8 pkd
pKD [9]: > 8 pkd
Binder: {111In‑DOTA-APAc″}-VYCE[dP]DWLTWSC-NH2 (linker 3-12 via mXylylene, also called 3BP-3583 (111In-labeled)) [111In-3BP-3583]

pKD [11]: 7.1 to 8 pkd
pKD [9]: > 8 pkd
Binder: {111In‑DOTA}-QCE[dP]D[Aph(SaPr)(5)]LTWSC-NH2 (linker 2-11 via mXylylene, also called [111In]In-DPI-4501) [111In-3BP-4501]

More lines, now with the values behind:

Binder: {DOTA-APAc}-VYCE[dP]DWLTWSC-NH2 (linker 3-12 via mXylylene; reading uncertain) [3BP-3583]
t1/2 (half-life of the complex, SPR) [1]: > 15 min
pKD [2]: < 6 pkd
pKD [3]: > 8 pkd
pKD [4]: < 6 pkd
pKD [5]: < 6 pkd
pKD [6]: > 8 pkd

Binder: {111In‑DOTA}-ECE[dP]D[Phe(3-NHCO(CH2)3SO2NH2)]LTW[Dap]C-NH2 (lactam 1-10; linker 2-11 via mXylylene, also called 3BP-4503 (111In-labeled)) [111In-3BP-4503]
pKD [7]: > 8 pkd
pKD [8]: > 8 pkd
pKD [9]: > 8 pkd

Binder: {DOTA-Sni}-YCE[dP]D[Phe(3-NHCO(CH2)3SO2NH2)]LTWSC-NH2 (linker 2-11 via mXylylene; reading uncertain) [3BP-4454]
t1/2 (half-life of the complex, SPR) [1]: > 15 min
pKD [3]: > 8 pkd
pIC50 [10]: 7.1 to 8 pic50

B1: DOTA-PPAc-Gln-[Cys(3MeBn)-Glu-pro-Asp-Af3(Cpsu)-Leu-Thr-Trp-Ser-Cys]-NH2 (peptide)
peptide: {DOTA-PPAc}-QCE[dP]D[Phe(3-NHCO(CH2)3SO2NH2)]LTWSC-NH2
modifications: linker 2-11 via mXylylene
notes: Synthetic cyclic peptide with uncomplexed DOTA; X stands for the non-natural residue Af3(Cpsu); also called DPI-4452; 3BP-4452
t1/2 (dissociation half-life) [12]: 99 min

Binder: {DOTA-PPAc}-QCE[dP]D[Aph(6SaPyr3)]LTWSC-NH2 (linker 2-11 via mXylylene) [3BP-4481]
pIC50 [13]: 6.1 to 7 pic50

Binder: {Cy5SO3-APAc″}-VYCE[dP]DWLTWSC-NH2 (linker 3-12 via mXylylene, Cyclic peptide with a fluorophore) [3BP-4149: Cy5SO3-APAc-Val-Tyr-[Cys(3MeBn)-Glu-pro-Asp-Trp-Leu-Thr-Trp-Ser-Cys]-NH2]
pEC50 [14]: > 8 pec50

Reference: patent US20250339569A1 (3B PHARMACEUTICALS, published 2025)
